Test results published in patent publication US20250179208A1.

Target: CD26 protein (recombinant human CD26) (human) (UniProt P27487)
Test: BLI (Octet QKe), CD26 amine-coupled on AR2G sensor, antibody at 181.8 nM

Response: 0.0395
B1: 17G108 (anti-CD26-CD3 chimeric bispecific antibody derived from No. 160 mouse antibody) (bispecific antibody)
chain: DIVMTQAAPSVPVTPGESVSISCRSSKSLLHSNGNTYLYWFLQRPGQSPQLLISQMSNLASGIPDRFSGSGSGTAFTLRISRVEAEDVGVYYCMQHLEYPFTFGSGTKLEIKGGGGSGGGGSGGGGSEVQLQQSGAELVKPGASVKLSCTASGFNIKDNYMNWVKQRPEQGLEWIGRIDPANGNPKYDPKFQGKATITADTSSNTAYLQLSSLTSEDTAVYYCTRWIYYYGSRYEWYFDVWGAGTTVTVSSGGGGSDVQLVQSGAEVKKPGASVKVSCKASGYTFTRYTMHWVRQAPGQGLEWIGYINPSRGYTNYADSVKGRFTITTDKSTSTAYMELSSLRSEDTATYYCARYYDDHYCLDYWGQGTTVTVSSGGGGSGGGGSGGGGSDIVLTQSPATLSLSPGERATLSCRASQSVSYMNWYQQKPGKAPKRWIYDTSKVASGVPARFSGSGSGTDYSLTINSLEAEDAATYYCQQWSSNPLTFGGGTKVEIK
